Measured values: patent US20210292393A1 (published 2021)

Key:
SARS-CoV spike protein = SARS-CoV spike protein (SARS-CoV, UniProt P59594 14-1190)
[1] = target: SARS-CoV-2 full-length spike protein on pseudotyped lentivirus (SARS-CoV-2, UniProt P0DTC2 14-1273); assay: cell-based or functional assay

B1: antibody 349 (antibody, V domains shown)
VH: EVQLVQSGAEVKKPGATVKISCKVSGYTFTDYYMHWVQQAPGKGLEWMGLVDPEDGETIYAEKFQGRVTITADTSTDTAYMELSSLRSEDTAVYYCATENKVPTIIAAAGTRDYYYYGMDVWGQGTTVTVSS
VL: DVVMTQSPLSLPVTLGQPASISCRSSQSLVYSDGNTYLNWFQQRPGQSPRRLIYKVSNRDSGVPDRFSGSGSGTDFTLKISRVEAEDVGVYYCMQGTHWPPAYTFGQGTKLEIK
- median fluorescence intensity, fold over isotype control (SARS-CoV spike protein): 1.12 fold over isotype

B2: anti-SARS-CoV-2 antibody 408 (antibody, V domains shown)
VH: QVQLVESGGGVVQPGRSLRLSCAASGFTFSSYAMHWVRQAPGKGLEWVAVISYDGSNKYYADSVKGRFTISRDNSRNTLYLQMNSLRAEDTAVYYCAKGADTPHYSGYDFLSVGYYYYGMDVWGQGTTVTVSS
VL: DIQMTQSPSSLSASVGDRVTITCRASQSISSYLNWYQQKPGKAPKLLIYAASSFQSGVPSRFSGSRSGTDFTLTISSLQPEDFATYYCQQSYSAPFTFGPGTKVDIKR
- IC50 (pseudoneutralization) [1]: > 50 µg/mL
- IC80 (pseudoneutralization) [1]: > 50 µg/mL

B3: antibody 351 (antibody, V domains shown)
VH: HVQLVESGGGVVQPGRSLRLSCAASGFISRNYGMEWVRQAPGQGLEWVAGIWYDGSKKYYADSVKGRFTISRDTSKNTLFLQMDSLRAEDTAVFYCATATKTFCGGDCPPGGMDVWGQGTTVTVST
VL: SYVLTQPPSVSVAPGKTAWITCVGNNIESESVHWYQQRPGQAPVLVIYYDSDRPSGIPERFFGSNSGNTATLTISRVEAGDEADYYCQVWDSNSDLMVFGGGTKLTVL
- median fluorescence intensity, fold over isotype control (SARS-CoV spike protein): 1.08 fold over isotype

B4: anti-SARS-CoV-2 antibody 292 (antibody, V domains shown)
VH: EVQLVESGGGLIQPGGSLRLSCAASGFTVSSNYMSWVRQAPGKGLEWVSVIYSGGSTYYADSVKGRFTISRDNSKNTLYLQMNSLRAEDTAVYYCARDLQGGGGPWGQGTLVTVSS
VL: AIQMTQSPSSLSASVGDRVTITCRASQGIRNDLGWYQQKPGKAPKLLIYAASSLQSGVPSRFSGSGSGTDFTLTISSLQPEDFATYYCLQDYNYPRTFGQGTKVEIKR
- IC50 (pseudoneutralization) [1]: > 50 µg/mL
- IC80 (pseudoneutralization) [1]: > 50 µg/mL

B5: anti-SARS-CoV-2 antibody 447 (antibody, V domains shown)
VH: EVQLVESGGGLVQPGGSLRLSCAASGFTVSSNYMSWVRQAPGKGLEWVSVIYSGGSTYYADSVKGRFTISRDNSKNTLYLQMNSLRAEDTAVYYCARDKSSGSGPWGQGTLVTVSS
VL: AIQMTQSPSSLSASVGDRVTITCRASQGIRNDLGWYQQKPGKAPKLLIYAASSLQSGVPSRFSGSGSGTDFTLTISSLQPEDFATYYCLQDYNYPRTFGQGTKVEIKR
- IC50 (pseudoneutralization) [1]: > 50 µg/mL
- IC80 (pseudoneutralization) [1]: > 50 µg/mL

B6: anti-SARS-CoV-2 antibody 364 (antibody, V domains shown)
VH: EVQLVESGGGLVQPGRSLRLSCTASGFTFGDYAMSWFRQAPGKGLEWVGFIRSKAYGGTTEYAASVKGRFTISRDDSKSIAYLQMNSLKTEDTAVYYCTRFGIDYDYIWGSYRYTTLFDYWGQGTLVTVSS
VL: not shown
- IC50 (pseudoneutralization) [1]: > 50 µg/mL
- IC80 (pseudoneutralization) [1]: > 50 µg/mL

B7: antibody 343 (antibody, V domains shown)
VH: QVQLVESGGDVVQPGTSLRLSCAASGFTFNNYGFHWVRQAPGKGLEWVALISSDGASTHYADSVKGRFTISRDSSVNTLYLQMNSLSLEDTAVYYCATGHCGTTCYYFDYWGQGTLVSVSS
VL: DIQVTQSPSYLSASVGDRVTITCRASQTISTFLQWYQQKVGKAPKLLIYAASTLQSGVPSRFSGSGSGTDFSLTISSLQPEDFATYYCQQSYSAPLSFGGGTKVEIK
- median fluorescence intensity, fold over isotype control (SARS-CoV spike protein): 1.19 fold over isotype

B8: antibody 368 (antibody, V domains shown)
V domain 1: QITLKESGPTLVKPTETLTLTCAFSGFSLTKTGEAAGWIRQAPGRALEWVTVIFWDDDKRYSPSLQNRLTVTKDTSKNVVVLTMTNVDPVDTATYFCWAMGGPGKEFFGQGTRVAVSS
V domain 2: QSVLTQPPSVSGAPGQRVTVSCTGTSSSIGPYSDVHWYQHIPGKAPRLLIFGTSNRPSGVPARFSGSKSGSSASLVIAGLQAEDEADYYCQSYDSSLGEIYVFGTGTTVTVL
- median fluorescence intensity, fold over isotype control (SARS-CoV spike protein): 1.09 fold over isotype

B9: antibody 372 (antibody, V domains shown)
VH: QVQLVESGGGVVQPGRSLRLSCAASGFTFSSYAMHWVRQAPGKGLEWVAVISYDGSNKYYADSVKGRFTISRDNSKNTLYLQMNSLRAEDTAVYYCARDLGTSALLWFGELFLNYGMDVWGQGTTVTVSS
VL: QSALTQPRSVSGSPGQSVTISCTGTSSDVGGYNYVSWYQQHPGKAPKLMIYDVSKRPSGVPDRFSGSKSGNTASLTISGLQAEDEADYYCCSYAGSPILVFGGGTKLTVL
- median fluorescence intensity, fold over isotype control (SARS-CoV spike protein): 1.08 fold over isotype

B10: antibody 366 (antibody, V domains shown)
VH: QVQLVESGGGVVQPGRSLRLSCAASGFTFSSYAMHWVRQAPGKGLEWVAVISYDGSNKYYADSVKGRFTISRDNSKNTLYLQMNSLRAEDTAVYYCARGLVGYNWFDPWGQGTLVTVSS
VL: DIQMTQSPSSVSASVGDRVTITCRASQGISSWLAWYQQKPGKAPKLLIYAASSLQSGVPSRFSGSGSGTDFTLTISSLQPEDFATYYCQQANSFTFGPGTKVDIK
- median fluorescence intensity, fold over isotype control (SARS-CoV spike protein): 1.23 fold over isotype

B11: antibody 345 (antibody, V domains shown)
VH: QVQLQESGPGLVKPSQTLSLTCTVSGGSISSGDYYWSWIRQPPGKGLEWIGYIYYSGSTYYNPSLKSRVTISVDTSKNQFSLKLSSVTAADTAVYYCARVGMVDNWNFEGNWFDPWGQGTLVTVSS
VL: QSALTQPRSVSGSPGQSVTISCTGTSSDVGGYNYVSWYQQHPGKAPKLMIYDVSKRPSGVPDRFSGSKSGNTASLTISGLQAEDEADYYCCSYAGSVVFGGGTKLTVL
- median fluorescence intensity, fold over isotype control (SARS-CoV spike protein): 1.09 fold over isotype

B12: antibody 380 (antibody, V domains shown)
VH: QVQLVESGGGVVQPGRSLRLSCAASGFTLKNYGMHWVRQAPGKGLEWVIVLSFDGSDEYKADSVRGRFTVSRDNSKNTLFLQMNSLRPDDTAVYYCAREQPTMIEGGRGPFDIWGQGTMVTVSS
VL: EVVMTQSPATLSVSPGDRATLSCRASQGVNSNLAWYQQKPGQAPRLLIYAASTRATGIPARFSASGSGTHFTLTISSLQSEDFAVYYCLQYNNWPPWTFGQGTKLEIK
- median fluorescence intensity, fold over isotype control (SARS-CoV spike protein): 1.21 fold over isotype

B13: antibody 363 (antibody, V domains shown)
VH: EVQLLESGGGLVQPGGSLRLSCAASGFTFSTYAMSWVRQAPGKGLEWVSAISGSGGSTYYADSVKGRFTISRDNSKNTLYLQMNSLRAEDTAVYYCASGYSPDYWGQGTLVTVSS
VL: not shown
- median fluorescence intensity, fold over isotype control (SARS-CoV spike protein): 1.09 fold over isotype

B14: antibody 348 (antibody, V domains shown)
VH: QVQLVQSGSELKKPGASVKVSCKASGYTFTSYAMNWVRQAPGQGLEWMGWINTNTGNPTYAQGFTGRFVFSLDTSVSTAYLQISSLKAEDTAVYYCARDHELPNTSSWFGHFEYWGQGTLVTVSS
VL: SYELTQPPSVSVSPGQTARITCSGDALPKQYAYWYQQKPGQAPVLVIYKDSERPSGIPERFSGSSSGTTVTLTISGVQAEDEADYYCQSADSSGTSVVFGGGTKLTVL
- median fluorescence intensity, fold over isotype control (SARS-CoV spike protein): 1.16 fold over isotype

B15: antibody 367 (antibody, V domains shown)
VH: QVQLVQSGAEVKKPGASVKVSCKASGYTFTGYYIHWVRQAPGQGLEWMGWINPNSGGTIYAQKFQGRVTMTRDTSISTAYMELSRLTSDDTAVYSCAREPYYDILTGYYAPRRYFDYWGQGTLVTVSS
VL: QSALTQPASVSGSPGQSITISCTGTSSDVGSYNYVSWYLQHPGKAPKLMIYDVSNRPSGVSNRFSGSKSGNTASLTISGLQAEDEADFYCSSYTSRSTYVFGTGTKVTVL
- median fluorescence intensity, fold over isotype control (SARS-CoV spike protein): 1.08 fold over isotype

B16: antibody 379 (antibody, V domains shown)
VH: QVQLQESGPGLVKPSQTLSLTCTVSGGSISSGGYYWSWIRQHPGKGLEWIGYIYYSGSTYYNPSLKSRVTISVDTSKNQFSLKLSSVTAADTAVYYCARGPLDFWSGYFRLRYFDSWGQGTLVTVSS
VL: QSALTQPASVSGSPGQSITISCTGTSSDVGGYNYVSWYQQHPGKAPKLMIYDVTNRPSGVSNRFSGSKSGNTASLTISGLQAEDEADYYCSSYTSSSTCVFGTGTKVTVL
- median fluorescence intensity, fold over isotype control (SARS-CoV spike protein): 5.9 fold over isotype
